Results: US20160024210A1 (AstraZeneca / MedImmune, published 2016)
Where a chain is given by its changes, count along the chain named.

B1: 4.5 humanized variant 8 (HC1-2 / LC1-2) (antibody, V domains shown)
VH: QVQLQESGPGLVKPSQTLSLTCTVSGFSITTGGYYWNWIRQHPGKKLEWIGYIYTSGRTSYNPSLKSRVTISRDTSKNQFSLKLSSVTAADTAVYYCADMADKGGWFAYWGQGTLVTVSS
VL: DIVMTQSPDSLAVSLGERATINCKSSQSLFSSNTKRNYLNWYQQKPGQPPKLLIYHASTRLSGVPDRFSGSGSGTDFTLTISSLQAEDVADYFCQQHYETPLTFGDGTRLEIK
notes: Variable domains only; detected with anti-hIg secondary; also called VH1B / VL1B
B2: 4.5 humanized variant 11 (HC1-2 / LC2-2) (antibody, V domains shown)
VH: B1 VH
VL: DIVMTQTPLSLPVTPGEPASISCRSSQSLFSSNTKRNYLNWYLQKPGQSPKLLIYHASTRLSGVPDRFSGSGSGTDFTLKISRVEAEDVGDYFCQQHYETPLTFGDGTRLEIK
notes: Variable domains only; detected with anti-hIg secondary; also called VH1B / VL2B
B3: 4.5 humanized variant 6 (HC1-1 / LC2-3) (antibody, V domains shown)
VH: B1 VH with N37S, K46G, S60Y, R73V
VL: B2 VL with L9S, R24L
notes: Variable domains only; detected with anti-hIg secondary; also called VH1A / VL2C
B4: 4.5 humanized variant 17 (HC1-3 / LC2-2) (antibody, V domains shown)
VH: B1 VH with H42F, I50M
VL: B2 VL
notes: Variable domains only; detected with anti-hIg secondary; also called VH1C / VL2B
B5: 4.5 humanized variant 12 (HC1-2 / LC2-3) (antibody, V domains shown)
VH: B1 VH
VL: B2 VL with L9S, R24L
notes: Variable domains only; detected with anti-hIg secondary; also called VH1B / VL2C
B6: 4.5 humanized variant 16 (HC1-3 / LC2-1) (antibody, V domains shown)
VH: B1 VH with H42F, I50M
VL: B2 VL with N40D, K51Q, T59Y, L61A, D91V, F93Y, D106Q
notes: Variable domains only; detected with anti-hIg secondary; also called VH1C / VL2A
B7: 4.5 humanized variant 18 (HC1-3 / LC2-3) (antibody, V domains shown)
VH: B1 VH with H42F, I50M
VL: B2 VL with L9S, R24L
notes: Variable domains only; detected with anti-hIg secondary; also called VH1C / VL2C
B8: 4.5 humanized variant 19 (HC2-1 / LC1-1) (antibody, V domains shown)
VH: QITLKESGPTLVKPTQTLTLTCTFSGFSITTGGYYVGWIRQPPGKALEWLALIYTSGRTRYSPSLKSRLTITKDTSKNQVVLTMTNMDPVDTATYYCADMADKGGWFAYWGQGTLVTVSS
VL: B1 VL with N40A, L61E, D91V, F93Y, D106Q
notes: Variable domains only; detected with anti-hIg secondary; also called VH2A / VL1A
B9: 4.5 humanized variant 13 (HC1-3 / LC1-1) (antibody, V domains shown)
VH: B1 VH with H42F, I50M
VL: B1 VL with N40A, L61E, D91V, F93Y, D106Q
notes: Variable domains only; detected with anti-hIg secondary; also called VH1C / VL1A
B10: 4.5 humanized variant 4 (HC1-1 / LC2-1) (antibody, V domains shown)
VH: B1 VH with N37S, K46G, S60Y, R73V
VL: B2 VL with N40D, K51Q, T59Y, L61A, D91V, F93Y, D106Q
notes: Variable domains only; detected with anti-hIg secondary; also called VH1A / VL2A
B11: 4.5 humanized variant 15 (HC1-3 / LC1-3) (antibody, V domains shown)
VH: B1 VH with H42F, I50M
VL: B1 VL with K24L, P49S
notes: Variable domains only; detected with anti-hIg secondary; also called VH1C / VL1C
B12: 4.5 humanized variant 14 (HC1-3 / LC1-2) (antibody, V domains shown)
VH: B1 VH with H42F, I50M
VL: B1 VL
notes: Variable domains only; detected with anti-hIg secondary; also called VH1C / VL1B
B13: 4.5 humanized variant 10 (HC1-2 / LC2-1) (antibody, V domains shown)
VH: B1 VH
VL: B2 VL with N40D, K51Q, T59Y, L61A, D91V, F93Y, D106Q
notes: Variable domains only; detected with anti-hIg secondary; also called VH1B / VL2A
B14: 4.5 humanized variant 5 (HC1-1 / LC2-2) (antibody, V domains shown)
VH: B1 VH with N37S, K46G, S60Y, R73V
VL: B2 VL
notes: Variable domains only; detected with anti-hIg secondary; also called VH1A / VL2B
B15: 4.5 humanized variant 9 (HC1-2 / LC1-3) (antibody, V domains shown)
VH: B1 VH
VL: B1 VL with K24L, P49S
notes: Variable domains only; detected with anti-hIg secondary; also called VH1B / VL1C
B16: 4.5 humanized variant 7 (HC1-2 / LC1-1) (antibody, V domains shown)
VH: B1 VH
VL: B1 VL with N40A, L61E, D91V, F93Y, D106Q
notes: Variable domains only; detected with anti-hIg secondary; also called VH1B / VL1A
B17: 4.5 humanized variant 20 (HC2-1 / LC1-2) (antibody, V domains shown)
VH: B8 VH
VL: B1 VL
notes: Variable domains only; detected with anti-hIg secondary; also called VH2A / VL1B

Assays:
[1] = molecular target: T1, human H7CR (B7-H7 counter-receptor) (human, UniProt Q96BF3 23-282); assay: binding to human H7CR as endogenously expressed on the surface of a cell
T1 construct: Used for H7CR on CHO.hH7CR transfectants, human T cells and tonsil tissue; also called B7-H7CR; CD28H
T1 sequence: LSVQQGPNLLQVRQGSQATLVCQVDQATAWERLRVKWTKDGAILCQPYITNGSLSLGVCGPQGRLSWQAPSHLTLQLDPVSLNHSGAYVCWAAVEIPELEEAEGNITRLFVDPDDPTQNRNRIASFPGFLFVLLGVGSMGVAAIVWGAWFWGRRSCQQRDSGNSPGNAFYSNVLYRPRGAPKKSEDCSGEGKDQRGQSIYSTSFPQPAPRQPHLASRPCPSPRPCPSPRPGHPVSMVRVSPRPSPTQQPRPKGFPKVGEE

[2] = molecular target: T2, H7CR-GFP fusion protein on transfected CHO cells (Homo sapiens (Human), UniProt Q96BF3 23-282); assay: flow cytometry, 5 µg/ml variant on H7CR-GFP transfected CHO cells, anti-hIg PE secondary antibody [row HC1-2, column LC1-2]
T2 construct: not shown: GFP part
T2 sequence: T1 sequence
Description: (§1) 5 μg/ml antibodies from thirty-six variants were incubated with H7CR-GFP fusion protein transfected CHO cells for 30 min at room temperature. Cells were then washed twice with 2 ml flow cytometry buffer, and resuspended in 100 μl flow cytometry buffer. 1 μl anti-hIg PE secondary antibody (Biolegend) was added and incubated with the cells for 15 mins Samples were then washed and resuspended in 100 μl flow cytometry buffer. Flow Cytometry data was acquired using BD Canto (BD Biosciences) in plate format and analyzed by FlowJo software.

[3] = molecular target: T2, H7CR-GFP fusion protein on transfected …; assay: flow cytometry, 5 µg/ml variant on H7CR-GFP transfected CHO cells, anti-hIg PE secondary antibody [row HC1-2, column LC2-2]
Description: as §1

[4] = molecular target: T2, H7CR-GFP fusion protein on transfected …; assay: flow cytometry, 5 µg/ml variant on H7CR-GFP transfected CHO cells, anti-hIg PE secondary antibody [row HC1-1, column LC2-3]
Description: as §1

[5] = molecular target: T2, H7CR-GFP fusion protein on transfected …; assay: flow cytometry, 5 µg/ml variant on H7CR-GFP transfected CHO cells, anti-hIg PE secondary antibody [row HC1-3, column LC2-2]
Description: as §1

[6] = molecular target: T2, H7CR-GFP fusion protein on transfected …; assay: flow cytometry, 5 µg/ml variant on H7CR-GFP transfected CHO cells, anti-hIg PE secondary antibody [row HC1-2, column LC2-3]
Description: as §1

[7] = molecular target: T2, H7CR-GFP fusion protein on transfected …; assay: flow cytometry, 5 µg/ml variant on H7CR-GFP transfected CHO cells, anti-hIg PE secondary antibody [row HC1-3, column LC2-1]
Description: as §1

[8] = molecular target: T2, H7CR-GFP fusion protein on transfected …; assay: flow cytometry, 5 µg/ml variant on H7CR-GFP transfected CHO cells, anti-hIg PE secondary antibody [row HC1-3, column LC2-3]
Description: as §1

[9] = molecular target: T2, H7CR-GFP fusion protein on transfected …; assay: flow cytometry, 5 µg/ml variant on H7CR-GFP transfected CHO cells, anti-hIg PE secondary antibody [row HC2-1, column LC1-1]
Description: as §1

[10] = molecular target: T2, H7CR-GFP fusion protein on transfected …; assay: flow cytometry, 5 µg/ml variant on H7CR-GFP transfected CHO cells, anti-hIg PE secondary antibody [row HC1-3, column LC1-1]
Description: as §1

[11] = molecular target: T2, H7CR-GFP fusion protein on transfected …; assay: flow cytometry, 5 µg/ml variant on H7CR-GFP transfected CHO cells, anti-hIg PE secondary antibody [row HC1-1, column LC2-1]
Description: as §1

[12] = molecular target: T2, H7CR-GFP fusion protein on transfected …; assay: flow cytometry, 5 µg/ml variant on H7CR-GFP transfected CHO cells, anti-hIg PE secondary antibody [row HC1-3, column LC1-3]
Description: as §1

[13] = molecular target: T2, H7CR-GFP fusion protein on transfected …; assay: flow cytometry, 5 µg/ml variant on H7CR-GFP transfected CHO cells, anti-hIg PE secondary antibody [row HC1-3, column LC1-2]
Description: as §1

[14] = molecular target: T2, H7CR-GFP fusion protein on transfected …; assay: flow cytometry, 5 µg/ml variant on H7CR-GFP transfected CHO cells, anti-hIg PE secondary antibody [row HC1-2, column LC2-1]
Description: as §1

[15] = molecular target: T2, H7CR-GFP fusion protein on transfected …; assay: flow cytometry, 5 µg/ml variant on H7CR-GFP transfected CHO cells, anti-hIg PE secondary antibody [row HC1-1, column LC2-2]
Description: as §1

[16] = molecular target: T2, H7CR-GFP fusion protein on transfected …; assay: flow cytometry, 5 µg/ml variant on H7CR-GFP transfected CHO cells, anti-hIg PE secondary antibody [row HC1-2, column LC1-3]
Description: as §1

[17] = molecular target: T2, H7CR-GFP fusion protein on transfected …; assay: flow cytometry, 5 µg/ml variant on H7CR-GFP transfected CHO cells, anti-hIg PE secondary antibody [row HC1-2, column LC1-1]
Description: as §1

[18] = molecular target: T2, H7CR-GFP fusion protein on transfected …; assay: flow cytometry, 5 µg/ml variant on H7CR-GFP transfected CHO cells, anti-hIg PE secondary antibody [row HC2-1, column LC1-2]
Description: as §1

Row | Binder | binding result [1] | other results
1 | B1 | binds | binding result [2]: binds
2 | B2 | binds | binding result [3]: binds
3 | B3 | binds | binding result [4]: binds
4 | B4 | binds | binding result [5]: binds
5 | B5 | binds | binding result [6]: binds
6 | B6 | binds | binding result [7]: binds
7 | B7 | binds | binding result [8]: binds
8 | B8 | binds | binding result [9]: binds
9 | B9 | binds | binding result [10]: binds
10 | B10 | binds | binding result [11]: binds
11 | B11 | binds | binding result [12]: binds
12 | B12 | binds | binding result [13]: binds
13 | B13 | binds | binding result [14]: binds
14 | B14 | binds | binding result [15]: binds
15 | B15 | binds | binding result [16]: binds
16 | B16 | binds | binding result [17]: binds
17 | B17 | binds | binding result [18]: binds
